Results on four compounds are retold here after patent publication US20060062729A1, “Enhanced ligand binding to neurotensin receptors” (priority 2004, published 2006).

One experiment has as its system PC3 cells. Description: ATP-induced IP formation in PC3 cells. Type of experiment: cell-based. Conditions: maximal dose of ATP (10 μM).
The target of experiment [1] is T1, NTR1 (Homo sapiens, UniProt P30989). Description: ^125I-NT binding to PC3 cells. Conditions: maximal % increase in NT binding observed for each agent.
Experiment [2] has as its target T1, NTR1. Type of experiment: cell-based. Conditions: 50 μM agent, 37° C., ^125I-NT prebound at 4° C. On the set-up: Ab-NTR1 detected two major bands in extracts of PC3 cells, the parent protein of 50 kDa; endogenous in cells; host or cells: PC3 cells (ATCC).
In experiment [3] the target is T1, NTR1. As to the kind of experiment: ^125I-NT binding to isolated PC3 cell membranes. On the set-up: Ab-NTR1 detected two major bands in extracts of PC3 cells, the parent protein of 50 kDa; endogenous in cells; host or cells: PC3 cells (ATCC).
In the next experiment the target is T2, bombesin receptor (Homo sapiens, UniProt P30550).
T2 construct: endogenous in cells; host or cells: PC3 cells (ATCC)
As to the kind of experiment: ^125I-[Nle^14]-bombesin binding to PC3 cells.

Experiment [4] has as its target T1, NTR1. As to the kind of experiment: NT-induced IP formation in PC3 cells. Type of experiment: cell-based. On the set-up: Ab-NTR1 detected two major bands in extracts of PC3 cells, the parent protein of 50 kDa; endogenous in cells; host or cells: PC3 cells (ATCC). Conditions: maximal % decrease in NT-induced IP formation.
Experiment [5] has as its target bombesin receptor of PC3 cells. Description: 125I-ligand binding to PC3 cells, 37 C, with 12 µM Rev-5901.
Experiment [6] concerns the target bombesin receptor of PC3 cells. Description: 125I-ligand binding to PC3 cells, 37 C, with 60 µM NDGA.
Experiment [7] has as its target bombesin receptor of PC3 cells. Description: 125I-ligand binding to PC3 cells with 12 µM SKF-96365.
For experiment [8], the target named is bombesin receptor of PC3 cells. As to the kind of experiment: 125I-ligand binding to PC3 cells, 37 C, with 12 µM AA-861.
The target in experiment [9] is bombesin receptor of PC3 cells. Description: 125I-ligand binding to PC3 cells, 37 C, with 60 µM AA-861.
Experiment [10] deals with bombesin receptor of PC3 cells. As to the kind of experiment: 125I-ligand binding to PC3 cells with 60 µM verapamil.
For experiment [11], the target named is bombesin receptor of PC3 cells. As to the kind of experiment: 125I-ligand binding to PC3 cells.
For experiment [12], the target named is bombesin receptor of PC3 cells. Description: 125I-ligand binding to PC3 cells with 60 µM phloretin.
The target in experiment [13] is bombesin receptor of PC3 cells. Description: 125I-ligand binding to PC3 cells with 60 µM NIF.
Experiment [14] concerns the target bombesin receptor of PC3 cells. Description: 125I-ligand binding to PC3 cells, 37 C, with 12 µM MK886.
Experiment [15] concerns the target bombesin receptor of PC3 cells.
The target of experiment [16] is bombesin receptor of PC3 cells. As to the kind of experiment: 125I-ligand binding to PC3 cells with 12 µM verapamil.
For experiment [17], the target named is bombesin receptor of PC3 cells. Description: 125I-ligand binding to PC3 cells with 60 µM SKF-96365.
The target of experiment [18] is bombesin receptor of PC3 cells. As to the kind of experiment: 125I-ligand binding to PC3 cells with 12 µM phloretin.
Experiment [19] deals with bombesin receptor of PC3 cells. As to the kind of experiment: 125I-ligand binding to PC3 cells, 37 C, with 60 µM MK886.
The target of experiment [20] is bombesin receptor of PC3 cells. As to the kind of experiment: Scatchard analysis, PC3 cells.
Experiment [21] deals with bombesin receptor of PC3 cells. Description: 125I-ligand binding to PC3 cells, 37 C, with 12 µM NDGA.
Experiment [22] has as its target bombesin receptor of PC3 cells. As to the kind of experiment: 125I-ligand binding to PC3 cells with 12 µM NIF.
Experiment [23] concerns the target bombesin receptor of PC3 cells. As to the kind of experiment: 125I-ligand binding to PC3 cells, 37 C, with 60 µM Rev-5901.
The target of experiment [24] is vasopressin (V1a) receptor of PC3 cells (UniProt P37288). As to the kind of experiment: 125I-HOLVA binding to PC3 cell membranes with 60 µM SKF-96365.
For experiment [25] the target is unchanged. As to the kind of experiment: 125I-ligand binding to PC3 cells, 37 C, with 12 µM Rev-5901.
Experiment [26] shares this target. Description: 125I-ligand binding to PC3 cells, 37 C, with 60 µM NDGA.
Experiment [27] shares this target. Description: 125I-ligand binding to PC3 cells with 12 µM SKF-96365.
For experiment [28] the target is unchanged. Description: 125I-ligand binding to PC3 cells, 37 C, with 12 µM AA-861.
Experiment [29] shares this target. Description: 125I-HOLVA binding to PC3 cell membranes with 60 µM verapamil.
For experiment [30] the target is unchanged. Description: 125I-ligand binding to PC3 cells, 37 C, with 60 µM AA-861.
For experiment [31] the target is unchanged. As to the kind of experiment: 125I-ligand binding to PC3 cells with 60 µM verapamil.
For experiment [32] the target is unchanged. As to the kind of experiment: 125I-ligand binding to PC3 cells.
Experiment [33] has the same target. Description: 125I-ligand binding to PC3 cells with 60 µM phloretin.
Experiment [34] has the same target. As to the kind of experiment: 125I-ligand binding to PC3 cells with 60 µM NIF.
For experiment [35] the target is unchanged. As to the kind of experiment: 125I-ligand binding to PC3 cells, 37 C, with 12 µM MK886.
The target is the same in experiment [36].
The target is the same in experiment [37]. As to the kind of experiment: 125I-ligand binding to PC3 cells with 12 µM verapamil.
Experiment [38] has the same target. Description: 125I-ligand binding to PC3 cells with 60 µM SKF-96365.
For experiment [39] the target is unchanged. Description: 125I-HOLVA binding to PC3 cell membranes with 60 µM NIF.
Experiment [40] has the same target. As to the kind of experiment: 125I-ligand binding to PC3 cells with 12 µM phloretin.
The target is the same in experiment [41]. Description: 125I-ligand binding to PC3 cells, 37 C, with 60 µM MK886.
Experiment [42] shares this target. As to the kind of experiment: Scatchard analysis, PC3 cells.
Experiment [43] shares this target. As to the kind of experiment: 125I-ligand binding to PC3 cells, 37 C, with 12 µM NDGA.
Experiment [44] has the same target. Description: 125I-ligand binding to PC3 cells with 12 µM NIF.
The target is the same in experiment [45]. Description: 125I-ligand binding to PC3 cells, 37 C, with 60 µM Rev-5901.

“And” between values parts separate entries of the source, which are not always exact repeats. Identical values can stand only once.

Chain of vasopressin (V1a) receptor of PC3 cells (P37288 whole entry): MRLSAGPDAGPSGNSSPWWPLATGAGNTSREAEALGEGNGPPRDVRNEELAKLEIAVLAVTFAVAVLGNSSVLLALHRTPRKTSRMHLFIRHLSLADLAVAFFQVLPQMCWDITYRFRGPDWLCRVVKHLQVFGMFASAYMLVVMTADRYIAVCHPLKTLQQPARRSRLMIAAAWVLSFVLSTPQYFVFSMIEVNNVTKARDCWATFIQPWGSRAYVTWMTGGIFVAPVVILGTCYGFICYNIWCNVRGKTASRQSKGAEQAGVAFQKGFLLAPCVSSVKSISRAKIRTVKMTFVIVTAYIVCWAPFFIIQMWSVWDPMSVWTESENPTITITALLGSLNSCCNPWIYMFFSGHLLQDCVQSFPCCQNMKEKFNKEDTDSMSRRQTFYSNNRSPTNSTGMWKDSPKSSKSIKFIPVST
Chain of bombesin receptor of PC3 cells (P30550 whole entry): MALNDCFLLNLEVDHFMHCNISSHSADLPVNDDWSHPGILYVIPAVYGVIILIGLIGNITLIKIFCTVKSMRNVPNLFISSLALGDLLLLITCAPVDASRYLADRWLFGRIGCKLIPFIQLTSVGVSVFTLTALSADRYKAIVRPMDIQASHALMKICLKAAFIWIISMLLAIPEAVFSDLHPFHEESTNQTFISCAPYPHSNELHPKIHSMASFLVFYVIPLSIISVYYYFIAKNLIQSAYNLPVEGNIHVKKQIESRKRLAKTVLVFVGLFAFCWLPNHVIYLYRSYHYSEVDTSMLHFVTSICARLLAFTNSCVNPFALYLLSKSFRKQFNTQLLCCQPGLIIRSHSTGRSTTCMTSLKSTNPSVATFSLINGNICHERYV
T1 sequence (P30989 whole entry): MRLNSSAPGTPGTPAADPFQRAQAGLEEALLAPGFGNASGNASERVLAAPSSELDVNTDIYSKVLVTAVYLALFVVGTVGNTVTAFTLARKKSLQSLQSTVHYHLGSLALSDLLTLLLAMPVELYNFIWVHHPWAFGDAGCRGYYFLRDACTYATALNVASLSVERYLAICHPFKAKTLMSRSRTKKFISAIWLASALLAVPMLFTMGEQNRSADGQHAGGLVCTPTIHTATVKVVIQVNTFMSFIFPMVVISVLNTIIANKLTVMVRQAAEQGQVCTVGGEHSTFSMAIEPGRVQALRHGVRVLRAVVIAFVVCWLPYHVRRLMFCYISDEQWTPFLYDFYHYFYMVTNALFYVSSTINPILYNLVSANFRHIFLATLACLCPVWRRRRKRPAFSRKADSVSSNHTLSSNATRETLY
T2 sequence (P30550 whole entry): as the sequence (P30550 whole entry) above

`Nc1ncnc2c1ncn2[C@@H]1O[C@H](COP(=O)(O)OP(=O)(O)OP(=O)(O)O)[C@@H](O)[C@H]1O` [ATP]: the “stimulation of IP formation” value in the experiment on PC3 cells was ~17 fold and > 15 fold.
Consider `O=C(CCc1ccc(O)cc1)c1c(O)cc(O)cc1O` [Phloretin], for which the “NT Binding Efficacy % increase” value on NTR1 [1] worked out at 186 % increase. The Internalization rate on NTR1 [2] worked out at 8.1±0.7 %/minute. The “Specific NT-Binding (% control)” value was found to be 110 ± 7 % control on NTR1 [3] (10 μM agent, 22° C., 60 minutes); 105 ± 8 % control at NTR1 [3] (25 μM agent); 97 ± 8 % control on NTR1 [3] (75 μM agent). The figures for the “Specific Binding (% control) of ^125I-[Nle^14]-bombesin” value at bombesin receptor (12 μM agent) and at bombesin receptor (60 μM agent) were 104 ± 3 % control and 111 ± 4 % control, respectively. The “IP Formation Efficacy (% decrease)” value at NTR1 [4] was determined as 70 % decrease.
Usually Ki stands for a measure of affinity in units of concentration, obtained from inhibition or displacement. Low readings indicate higher affinity, high ones lower affinity. [Tyr^4, Nle^14]-bombesin (peptide): the Specific Binding (% control) worked out at 107 % control in [5]; 127 % control in experiment [6]; 99 % control in experiment [7]; 112 % control in experiment [8]; 135 % control in [9]; 104 % control in [10]. Also, the Specific Binding (% control) was determined as 111 % control in experiment [12]; 119 % control in experiment [13]; 106 % control in experiment [14]; 104 % control in experiment [16]; 106 % control in experiment [17]; 104 % control in experiment [18]. The Specific Binding (% control) in experiment [19] came to 125 % control; in experiment [21], 110 % control; in experiment [22], 108 % control; in experiment [23], 119 % control. Moreover, the Specific Binding (% of total) in experiment [11] was 95 % of total. Further, the Ki in experiment [15] stood at 0.6 nM. The same compound had a Bmax in experiment [20] of 1020 fmol/mg.
With “des-Gly-[Phaa1, D-Tyr(Et)2, Lys6, Arg8]-vasopressin (HOLVA) (peptide)”, the Binding (% control) in [24] worked out at 110 % control; in experiment [29], 91 % control; in experiment [39], 90 % control. For the same compound, the Specific Binding (% control) in experiment [25] worked out at 68 % control; in experiment [26], 50 % control; in experiment [27], 80 % control; in [28], 87 % control; in [30] it was 57 % control; in experiment [31], 58 % control. In addition, the Specific Binding (% control) worked out at 73 % control in experiment [33]; 59 % control in [34]; 93 % control in experiment [35]; 85 % control in experiment [37]; 50 % control in [38]; 92 % control in experiment [40]. Moreover, the Specific Binding (% control) in [41] stood at 67 % control; in experiment [43], 84 % control; in experiment [44], 95 % control; in experiment [45], 42 % control. Besides, in experiment [32], the Specific Binding (% of total) is 77 % of total. Further, in experiment [36], the Ki was 0.5 nM. In experiment [42], the Bmax amounted to 156 fmol/mg.
